# Test results published in US7589065.
# T1: Ala-Ala-Tyr-Ala-Ala
# T1 chain: AAYAA
# B1: fragment of the trigger factor (protein)
# chain: RKQQATWKEKDGAVEAEDRVTIDFTGSVDGEEFEGGKASDFVLAMGQGRMIPGFEDGIKGHKAGEEFTIDVTFPEEYHAENLKGKAAKFAINLKKVEERELPELTAE
# B2: Parvulin (protein)
# chain: AKTAAALHILVKEEKLALDLLEQIKNGADFGKLAKKHSICPSGKRGGDLGEFRQGQMVPAFDKVVFSCPVLEPTGPLHTQFGYHIIKVLYRN
# B3: trigger factor (TF) (protein)
# chain: MQVSVETTQGLGRRVTITIAADSIETAVKSELVNVAKKVRIDGFRKGKVPMNIVAQRYGASVRQDVLGDLMSRNFIDAIIKEKINPAGAPTYVPGEYKLGEDFTYSVEFEVYPEVELQGLEAIEVEKPIVEVTDADVDGMLDTLRKQQATWKEKDGAVEAEDRVTIDFTGSVDGEEFEGGKASDFVLAMGQGRMIPGFEDGIKGHKAGEEFTIDVTFPEEYHAENLKGKAAKFAINLKKVEERELPELTAEFIKRFGVEDGSVEGLRAEVRKNMERELKSAIRNRVKSQAIEGLVKANDIDVPAALIDSEIDVLRRQAAQRFGGNEKQALELPRELFEEQAKRRVVVGLLLGEVIRTNELKADEERVKGLIEEMASAYEDPKEVIEFYSKNKELMDNMRNVALEEQAVEAVLAKAKVTEKETTFNELMNQQA
# Molecular target: T1, Ala-Ala-Tyr-Ala-Ala
protein,measurement,value
B1,relative intensity of the cross signal of the Ala-Tyr peptide bond (no addition: 3.50 ± 0.51) (relative intensity),3.96
same,relative intensity of the cross signal of the Tyr-Ala peptide bond (no addition: 3.89 ± 0.32) (relative intensity),3.22
B2,relative intensity of the cross signal of the Ala-Tyr peptide bond (no addition: 3.50 ± 0.51) (relative intensity),2.9
same,relative intensity of the cross signal of the Tyr-Ala peptide bond (no addition: 3.89 ± 0.32) (relative intensity),3.11
B3,relative intensity of the cross signal of the Ala-Tyr peptide bond (no addition: 3.50 ± 0.51) (relative intensity),3.83
same,relative intensity of the cross signal of the Tyr-Ala peptide bond (no addition: 3.89 ± 0.32) (relative intensity),4.42
